Reference: publication PMC6346709

T1: Recombinant CbpF from Fn ATCC 25586 (group I), passenger domain, Q8RIS0
T1 chain: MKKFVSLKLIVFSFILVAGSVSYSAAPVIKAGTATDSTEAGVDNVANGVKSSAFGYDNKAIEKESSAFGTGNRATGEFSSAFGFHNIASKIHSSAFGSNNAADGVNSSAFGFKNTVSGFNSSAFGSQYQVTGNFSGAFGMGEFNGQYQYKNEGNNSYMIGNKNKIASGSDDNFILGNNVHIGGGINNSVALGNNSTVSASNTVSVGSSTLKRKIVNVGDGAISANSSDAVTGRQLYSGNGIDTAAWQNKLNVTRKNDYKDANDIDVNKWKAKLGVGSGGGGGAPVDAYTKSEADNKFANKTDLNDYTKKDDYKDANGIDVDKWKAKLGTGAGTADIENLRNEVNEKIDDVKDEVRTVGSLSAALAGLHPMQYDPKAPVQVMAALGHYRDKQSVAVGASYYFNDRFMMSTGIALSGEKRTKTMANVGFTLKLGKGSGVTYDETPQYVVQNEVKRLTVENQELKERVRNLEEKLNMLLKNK

B1: CEACAM1-Fc, comprising all extracellular CEACAM1 domains fused to the human immunoglobulin G (IgG) Fc domain, P13688 I91A (protein)
chain: QLTTESMPFNVAEGKEVLLLVHNLPQQLFGYSWYKGERVDGNRQIVGYAIGTQQATPGPANSGRETIYPNASLLIQNVTQNDTGFYTLQVAKSDLVNEEATGQFHVYPELPKPSISSNNSNPVEDKDAVAFTCEPETQDTTYLWWINNQSLPVSPRLQLSNGNRTLTLLSVTRNDTGPYECEIQNPVSANRSDPVTLNVTYGPDTPTISPSDTYYRPGANLSLSCYAASNPPAQYSWLINGTFQQSTQELFIPNITVNNSGSYTCHANNSVTGCNRTTVKTIIVTELSPVVAKPQIKASKTTVTGDKDSVNLTCSTNDTGISIRWFFKNQSLPSSERMKLSQGNTTLSINPVKREDAGTYWCEVFNPISKNQSDPIMLNVNYNALPQENGLSPG
B2: CEACAM1-3-Fc (containing N-A1-B1 domains) V96A (protein)
chain: QLTTESMPFNVAEGKEVLLLVHNLPQQLFGYSWYKGERVDGNRQIVGYAIGTQQATPGPANSGRETIYPNASLLIQNVTQNDTGFYTLQVIKSDLANEEATGQFHVYPELPKPSISSNNSNPVEDKDAVAFTCEPETQDTTYLWWINNQSLPVSPRLQLSNGNRTLTLLSVTRNDTGPYECEIQNPVSANRSDPVTLNVTYGPDTPTISPSDTYYRPGANLSLSCYAASNPPAQYSWLINGTFQQSTQELFIPNITVNNSGSYTCHANNSVTGCNRTTVKTIIVTGK
B3: CEACAM1-3-Fc (containing N-A1-B1 domains) Q89N (protein)
chain: QLTTESMPFNVAEGKEVLLLVHNLPQQLFGYSWYKGERVDGNRQIVGYAIGTQQATPGPANSGRETIYPNASLLIQNVTQNDTGFYTLNVIKSDLVNEEATGQFHVYPELPKPSISSNNSNPVEDKDAVAFTCEPETQDTTYLWWINNQSLPVSPRLQLSNGNRTLTLLSVTRNDTGPYECEIQNPVSANRSDPVTLNVTYGPDTPTISPSDTYYRPGANLSLSCYAASNPPAQYSWLINGTFQQSTQELFIPNITVNNSGSYTCHANNSVTGCNRTTVKTIIVTGK

Experiments:
[1] = target: CEACAM binding protein of Fusobacterium (CbpF) of F. nucleatum ATCC 25586, FN1499 (Fusobacterium nucleatum ATCC 25586 (endogenous)); assay: migration on SDS-PAGE and Western blot; native CbpF in lysate or co-precipitate runs at ~150 kDa against ~50 kDa predicted for the mature chain; Fn lysate gives a ~50 kDa band after 70% formic acid
[2] = target: Recombinant CbpF from Fn ATCC 25586 (group I), passenger domain (UniProt Q8RIS0); assay: ELISA; details: 3 pmol CbpF; 15 fmol CEACAM1-3-Fc mutant; developed for 5 hrs at 37°C; parent: est. 0.43; read off a plot
[3] = target: Recombinant CbpF from clinical strain 2B3 (group II), passenger domain, pOPINE construct; assay: ELISA; details: 3 pmol CbpF; 15 fmol CEACAM1-3-Fc mutant; developed for 5 hrs at 37°C; parent: est. 0.66; read off a plot
[4] = target: Recombinant CbpF from Fn ATCC 25586 (group I), passenger domain (Fusobacterium nucleatum ATCC 25586) (UniProt Q8RIS0); assay: ELISA; purified CbpFI and CbpFII (3 pmol) immobilised on plates; 1 pmol of each CEACAM-Fc variant; anti-human secondary antibody
[5] = target: CEACAM binding protein of Fusobacterium (CbpF) of F. vincentii ATCC 49256, FNV1729 (Fusobacterium vincentii ATCC 49256 (endogenous)); assay: migration on SDS-PAGE and Western blot; native CbpF in lysate or co-precipitate runs at ~150 kDa against ~50 kDa predicted for the mature chain; Fn lysate gives a ~50 kDa band after 70% formic acid
[6] = target: Recombinant CbpF from clinical isolate 2B3 (protein of Figure 8, dot blot and Figure S9); assay: ELISA; details: chain shown with the change; read at 2 µg.ml-1 of the Fc construct (highest point of the titration); recombinant CbpF immobilised; parent: est. 1.9; read off a plot
[7] = target: T1, Recombinant CbpF from Fn ATCC 25586 …; assay: ELISA; details: chain shown with the change; 3 pmol CbpF; 15 fmol CEACAM1-3-Fc mutant; developed for 5 hrs at 37°C; parent: est. 0.43; read off a plot

Molecule | response [2] [A405] | response [3] [A405] | other results
CEACAM binding protein of Fusobacterium (CbpF) of F. nucleatum ATCC 25586, FN1499 (natural protein) |  |  | stoichiometry N [1]: 3
CEACAM1-3-Fc (containing N-A1-B1 domains) I91L | 0.022 | 0.006 | 
CEACAM1-3-Fc (containing N-A1-B1 domains) Q44E | 0.02 | 0.017 | 
CEACAM1-Fc, comprising all extracellular CEACAM1 domains fused to the human immunoglobulin G (IgG) Fc domain (from UniProt P13688 35-428) (Fc fusion) |  |  | binding relative to group II CbpF [4]: 75%
CEACAM1-3-Fc (containing N-A1-B1 domains) G47L | 0.007 | 0.008 | 
CEACAM1-3-Fc (containing N-A1-B1 domains) Q44R | 0.02 | 0.013 | 
CEACAM1-3-Fc (containing N-A1-B1 domains) F29I | 0.012 | 0.017 | 
CEACAM1-3-Fc (containing N-A1-B1 domains) Q44L | 0.027 | 0.021 | 
CEACAM1-3-Fc (containing N-A1-B1 domains) I91A | 0.02 | 0.01 | 
CEACAM1-3-Fc (containing N-A1-B1 domains) F29G | 0.012 | 0.012 | 
CEACAM1-3-Fc (containing N-A1-B1 domains) I91G | 0.066 | 0.017 | 
CEACAM1-3-Fc (containing N-A1-B1 domains) Q89N |  | 0.17 | 
CEA-Fc (from UniProt P06731 35-685) (Fc fusion) |  |  | binding relative to group II CbpF [4]: 50%
CEACAM1-3-Fc (containing N-A1-B1 domains) F29Y | 0.017 | 0.082 | 
CEACAM1-3-Fc (containing N-A1-B1 domains) F29R | 0.013 | 0.013 | 
CEACAM1-3-Fc (containing N-A1-B1 domains) Y34S | 0.017 | 0.012 | 
CEACAM1-3-Fc (containing N-A1-B1 domains) Y34A | 0.021 | 0.043 | 
CEACAM binding protein of Fusobacterium (CbpF) of F. vincentii ATCC 49256, FNV1729 (natural protein) |  |  | stoichiometry N [5]: 3
CEACAM1-3-Fc (containing N-A1-B1 domains) Y34F | 0.017 | 0.013 | 
CEACAM1-3-Fc (containing N-A1-B1 domains) V96A |  | 0.87 | 
B1 |  |  | response [6]: 0 A405
B2 |  |  | response [7]: 0.4 A405
B3 |  |  | response [7]: 0.024 A405
